Our source for the EC50 (read off the curve), BaF3/cat EPOR cell proliferation and EC50 (read off the curve), BaF3/mouse EPOR cell proliferation values is patent publication US20230357341A1.

Experiment [1] addresses T1, cat EPOR expressed on Ba/F3 cells (BaF3/cat EPOR) (cat).
T1 sequence: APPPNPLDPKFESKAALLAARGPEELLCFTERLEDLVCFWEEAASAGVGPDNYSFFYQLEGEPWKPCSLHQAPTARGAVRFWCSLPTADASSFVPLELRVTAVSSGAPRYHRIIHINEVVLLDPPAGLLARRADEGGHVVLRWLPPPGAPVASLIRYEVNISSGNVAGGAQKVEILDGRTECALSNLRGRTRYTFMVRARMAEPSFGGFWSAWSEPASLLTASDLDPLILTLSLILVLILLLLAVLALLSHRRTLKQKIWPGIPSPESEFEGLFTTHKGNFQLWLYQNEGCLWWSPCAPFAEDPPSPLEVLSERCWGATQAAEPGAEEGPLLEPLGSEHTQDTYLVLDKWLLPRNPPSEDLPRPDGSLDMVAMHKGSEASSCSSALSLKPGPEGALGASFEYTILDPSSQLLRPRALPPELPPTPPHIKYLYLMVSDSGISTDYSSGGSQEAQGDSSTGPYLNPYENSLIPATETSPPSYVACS

Experiment [2] concerns the target T2, mouse EPOR expressed on Ba/F3 cells (BaF3/mouse EPOR) (mouse) (UniProt P14753).
T2 sequence: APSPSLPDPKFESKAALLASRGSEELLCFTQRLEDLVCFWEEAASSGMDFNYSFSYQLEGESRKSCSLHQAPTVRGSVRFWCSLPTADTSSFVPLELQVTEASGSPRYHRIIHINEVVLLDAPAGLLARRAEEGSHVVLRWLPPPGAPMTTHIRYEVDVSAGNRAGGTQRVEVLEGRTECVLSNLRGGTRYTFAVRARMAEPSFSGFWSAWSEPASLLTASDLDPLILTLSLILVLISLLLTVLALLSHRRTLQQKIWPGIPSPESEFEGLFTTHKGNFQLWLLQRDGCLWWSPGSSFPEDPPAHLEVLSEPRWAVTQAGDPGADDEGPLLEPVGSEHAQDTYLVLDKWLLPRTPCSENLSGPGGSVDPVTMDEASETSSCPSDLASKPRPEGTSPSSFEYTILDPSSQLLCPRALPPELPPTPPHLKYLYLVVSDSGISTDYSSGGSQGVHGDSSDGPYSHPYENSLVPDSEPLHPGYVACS

In experiment [1], “human EPO (PeproTech) (from UniProt P01588 28-193) (ligand)” displayed an EC50 (read off the curve), BaF3/cat EPOR cell proliferation of 0.02 nM.

“wild-type cat EPO-His (fusion protein of cat EPO and His tag) (from UniProt P33708 27-192) (ligand)” had an EC50 (read off the curve), BaF3/cat EPOR cell proliferation in experiment [1] of 0.03 nM. In addition, in experiment [2], the EC50 (read off the curve), BaF3/mouse EPOR cell proliferation was found to be 0.04 nM.

B1: cat EPO-Fc (C165R cat EPO-siCFV3) of Examples 12 and 13 (Fc fusion, not shown: small tags and cut ends)
chain: APPRLICDSRVLERYILEAREAENVTMGCAEGCSFSENITVPDTKVNFYTWKRMDVGQQAVEVWQGLALLSEAILRGQALLANSSQPSETLQLHVDKAVSSLRSLTSLLRALGAQKEATSLPEATSAAPLRTFTVDTLRKLFRIYSNFLRGKLTLYTGEACRRGDRPPEMRRGPKIFIFPPKPKDTLSISRTPEVTCLVVDLGPDDSDVQITWFVDNTQVYTAKTSPREEQFNSTYRVVSVLPILHQDWLKGKEFKCKVNSKSLPSPIERTISKAKGQPHEPQVYVLPPAQEELSRNKVSVTCLIKSFHPPDIAVEWEITGQPEPENNYRTTPPQLDSDGTYFVYSKLSVDRSHWQRGNTYTCSVLHEALHAHHTRKELTQSPGK
Molecule B1 yielded an EC50 (read off the curve), BaF3/cat EPOR cell proliferation in experiment [1] of 0.02 nM. Also, the EC50 (read off the curve), BaF3/mouse EPOR cell proliferation in experiment [2] was found to be 0.05 nM.

B2: wild-type mouse EPO-His (fusion protein of mouse EPO and His tag) (ligand)
chain: APPRLICDSRVLERYILEAKEAENVTMGCAEGPRLSENITVPDTKVNFYAWKRMEVEEQAIEVWQGLSLLSEAILQAQALLANSSQPPETLQLHIDKAISGLRSLTSLLRVLGAQKELMSPPDTTPPAPLRTLTVDTFCKLFRVYANFLRGKLKLYTGEVCRRGDRGAAHHHHHHHHH
Molecule B2 registered an EC50 (read off the curve), BaF3/mouse EPOR cell proliferation in experiment [2] of 0.05 nM.
